From patent EP2080771A2 (Maxygen Aps, dated 2009)
Changes are numbered by the printed parent chain. Names may count otherwise. Read-outs that look alike come from different tables or passages of the source. One block for each binder: values may come before it.

Key:
Test in all cases: cell-based or functional assay
[1] = target: T1, Interferon type I receptors on HeLa cells (UniProt P17181 28-557; P48551 27-515, limits assumed)
T1 sequence (looked up) 1: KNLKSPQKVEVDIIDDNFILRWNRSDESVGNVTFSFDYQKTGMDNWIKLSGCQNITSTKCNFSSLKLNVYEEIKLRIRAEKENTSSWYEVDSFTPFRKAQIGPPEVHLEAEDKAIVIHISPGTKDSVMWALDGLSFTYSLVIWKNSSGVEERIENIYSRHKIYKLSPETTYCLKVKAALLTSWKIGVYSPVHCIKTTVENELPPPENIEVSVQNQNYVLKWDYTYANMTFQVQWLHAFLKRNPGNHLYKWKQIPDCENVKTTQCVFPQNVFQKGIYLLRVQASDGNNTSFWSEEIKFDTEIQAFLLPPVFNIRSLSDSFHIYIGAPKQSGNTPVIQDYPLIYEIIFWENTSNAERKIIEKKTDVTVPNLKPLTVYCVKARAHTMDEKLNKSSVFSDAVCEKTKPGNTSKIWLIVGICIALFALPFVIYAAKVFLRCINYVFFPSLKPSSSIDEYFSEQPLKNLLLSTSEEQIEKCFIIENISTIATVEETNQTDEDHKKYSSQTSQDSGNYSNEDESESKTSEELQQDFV
T1 sequence (looked up) 2: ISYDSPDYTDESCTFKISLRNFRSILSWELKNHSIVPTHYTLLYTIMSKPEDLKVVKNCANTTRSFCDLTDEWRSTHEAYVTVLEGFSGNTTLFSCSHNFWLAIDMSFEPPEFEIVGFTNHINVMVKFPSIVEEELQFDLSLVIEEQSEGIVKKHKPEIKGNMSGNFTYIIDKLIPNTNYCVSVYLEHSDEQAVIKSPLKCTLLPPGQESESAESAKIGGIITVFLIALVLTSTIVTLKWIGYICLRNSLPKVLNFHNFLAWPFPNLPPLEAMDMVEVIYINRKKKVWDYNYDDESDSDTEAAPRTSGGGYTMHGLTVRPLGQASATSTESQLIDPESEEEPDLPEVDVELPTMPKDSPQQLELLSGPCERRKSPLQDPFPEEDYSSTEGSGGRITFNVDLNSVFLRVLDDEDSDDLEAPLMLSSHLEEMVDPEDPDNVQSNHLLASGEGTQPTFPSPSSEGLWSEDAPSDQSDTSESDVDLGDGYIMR

[2] = target: T1, Interferon type I receptors on HeLa …; remark: listed apart in the source
[3] = target: T1, Interferon type I receptors on HeLa …; remark: listed apart in the source

INF-β activity, culture medium of transfected CHO K1 cells [1]: 65900 IU/ml
B1: [Q48V, Q49N, Q51T]hINF-β (ligand)
chain: MSYNLLGFLQRSSNFQCQKLLWQLNGRLEYCLKDRMNFDIPEEIKQLVNFTKEDAALTIYEMLQNIFAIFRQDSSSTGWNETIVENLLANVYHQINHLKTVLEEKLEKEDFTRGKLMSSLHLKRYYGRILHYLKAKEYSHCAWTIVRVEILRNFYFINRLTGYLRN
modifications: introduced N-linked glycosylation site at position 49, besides the natural site at N80 (expressed in CHO K1 cells)

INF-β activity, culture medium of transfected CHO K1 cells [2]: 15100 IU/ml
B2: [D110V, F111N, R113T]hINF-β (ligand)
chain: B1 chain with V48Q, N49Q, T51Q, D110V, F111N, R113T
modifications: introduced N-linked glycosylation site at position 111, besides the natural site at N80 (expressed in CHO K1 cells)

INF-β activity, culture medium of transfected CHO K1 cells [2]: 50900 IU/ml
B3: [D110F, F111N, R113T]hINF-β (ligand)
chain: B1 chain with V48Q, N49Q, T51Q, D110F, F111N, R113T
modifications: introduced N-linked glycosylation site at position 111, besides the natural site at N80 (expressed in CHO K1 cells)

INF-β activity, culture medium of transfected CHO K1 cells [1]: 53100 IU/ml
B4: [Q48F, Q49N, Q51T]hINF-β (ligand)
chain: B1 chain with V48F
modifications: introduced N-linked glycosylation site at position 49, besides the natural site at N80 (expressed in CHO K1 cells)

INF-β activity, culture medium of transfected CHO K1 cells [1]: 45100 IU/ml
B5: [Q48W, Q49N, Q51T]hINF-β (ligand)
chain: B1 chain with V48W
modifications: introduced N-linked glycosylation site at position 49, besides the natural site at N80 (expressed in CHO K1 cells)

INF-β activity, culture medium of transfected CHO K1 cells [2]: 58600 IU/ml | specific activity relative to wt hINF-β [3]: ~2 fold of wt hINF-β
B6: [F111N+R113T]hINF-β variant (ligand)
chain: B1 chain with V48Q, N49Q, T51Q, F111N, R113T
modifications: introduced N-linked glycosylation site at position 111 (used only about 50%), besides the natural site at N80 (expressed in CHO K1 cells)

INF-β activity, culture medium of transfected CHO K1 cells [1]: 135000 IU/ml
B7: [Q49N+Q51T]hINF-β variant (ligand)
chain: B1 chain with V48Q
modifications: introduced N-linked glycosylation site at position 49 (used only about 60%), besides the natural site at N80 (expressed in CHO K1 cells)
